Assay results: patent US20250320281A1

Assays:
Assay in all cases: cell-based or functional assay
[1] = target: HIV-1 Env of isolate MGRM-D-012 (clade D pseudovirus) (HIV-1)
[2] = target: HIV-1 Env of pseudovirus MGRM-G-016 (HIV-1, clade G isolate MGRM-G-016)
[3] = target: HIV-1 Env of isolate 92UG024 (clade D pseudovirus) (HIV-1)
[4] = target: HIV-1 Env of pseudovirus MGRM-F1-020 (HIV-1)
[5] = target: HIV-1 Env of isolate 92UG001 (clade D pseudovirus) (HIV-1)
[6] = target: HIV-1 Env of pseudovirus MGRM-F1-012 (HIV-1)
[7] = target: HIV-1 Env of isolate PVO.4 (Acute), clade B, on pseudovirus (HIV-1)
[8] = target: HIV-1 Env of isolate MGRM-G-006 (HIV-1)
[9] = target: HIV-1 Env of pseudovirus MGRM-AG-002 (clade CRF_AG) (HIV-1)
[10] = target: HIV-1 Env of isolate MGRM-D-011 (clade D pseudovirus) (HIV-1)
[11] = target: HIV-1 Env of isolate TRJ0.58 (Acute), clade B, on pseudovirus (HIV-1)
[12] = target: HIV-1 IAVI-C18 envelope glycoprotein (Env) on pseudovirus (HIV-1)
[13] = target: HIV-1 Env of isolate MGRM-D-019 (clade D pseudovirus) (HIV-1)
[14] = target: HIV-1 Env of pseudovirus MGRM-AG-013 (clade CRF_AG) (HIV-1)
[15] = target: HIV-1 JRFL Env (pseudovirus) (HIV-1)
[16] = target: HIV-1 MGRM-D-001 Env (pseudovirus) (HIV-1)
[17] = target: HIV-1 Env of isolate MGRM-AE-005 (subtype AE) (HIV-1)
[18] = target: HIV-1 Env of isolate CMU02 (subtype AE) (HIV-1)
[19] = target: HIV-1 Env of isolate MG RM-D-003 (HIV-1)
[20] = target: HIV-1 Env of isolate MGRM-A-008 (subtype A) (HIV-1)
[21] = target: HIV-1 Env of isolate MGRM-AG-013 (subtype AG) (HIV-1)
[22] = target: HIV-1 Env of isolate 93UG077 (HIV-1)
[23] = target: HIV-1 Env of isolate MGRM-A-012 (subtype A) (HIV-1)
[24] = target: HIV-1 Env of isolate JRCSF (subtype B) (HIV-1) (UniProt P20871)
[25] = target: HIV-1 Env of isolate MGRM-Chronic-B-003 (subtype B) (HIV-1)
[26] = target: HIV-1 Env of isolate MGRM-Chronic-B-020 (subtype B) (HIV-1)
[27] = target: HIV-1 Env of isolate MGRM-AE-008 (subtype AE) (HIV-1)
[28] = target: HIV-1 Env of isolate MGRM-Chronic-B-008 (subtype B) (HIV-1)
[29] = target: HIV-1 envelope glycoprotein (Env) of isolate MGRM-C-015 (HIV-1)
[30] = target: HIV-1 Env of isolate MGRM-A-006 (HIV-1)
[31] = target: HIV-1 Env of isolate APV-13 (HIV-1)
[32] = target: HIV-1 Env of isolate MG RM-D-004 (HIV-1)
[33] = target: HIV-1 Env of isolate 94UG103 (HIV-1)
[34] = target: HIV-1 Env of isolate MGRM-C-005 (subtype C) (HIV-1)
[35] = target: HIV-1 Env of isolate 92UG024 (HIV-1)
[36] = target: HIV-1 Env of isolate MGRM-D-024 (pseudovirus) (HIV-1)
[37] = target: HIV-1 Env of isolate MGRM-D-011 (pseudovirus) (HIV-1)
[38] = target: HIV-1 Env of isolate 97ZA012 (HIV-1)
[39] = target: HIV-1 Env of isolate MGRM-D-019 (pseudovirus) (HIV-1)
[40] = target: HIV-1 Env of isolate MGRM-D-016 (pseudovirus) (HIV-1)

Sequence of 5329_C19 (PGT-136) (antibody) (VH): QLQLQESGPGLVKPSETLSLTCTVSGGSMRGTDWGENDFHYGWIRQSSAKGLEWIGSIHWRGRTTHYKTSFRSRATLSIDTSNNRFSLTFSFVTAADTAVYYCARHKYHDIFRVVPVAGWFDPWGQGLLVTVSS
Sequence of 5329_C19 (PGT-136) (antibody) (VL): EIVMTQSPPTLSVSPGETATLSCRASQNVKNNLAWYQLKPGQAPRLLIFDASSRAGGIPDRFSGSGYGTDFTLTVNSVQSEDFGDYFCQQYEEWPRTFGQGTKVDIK
Sequence of 4995_E20 (PGT-142) (antibody) (VH): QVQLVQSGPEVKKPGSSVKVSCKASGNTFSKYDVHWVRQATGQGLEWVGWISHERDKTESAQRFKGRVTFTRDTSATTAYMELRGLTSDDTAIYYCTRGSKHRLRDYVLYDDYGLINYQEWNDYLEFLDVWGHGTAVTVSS
Sequence of 4995_E20 (PGT-142) (antibody) (VL): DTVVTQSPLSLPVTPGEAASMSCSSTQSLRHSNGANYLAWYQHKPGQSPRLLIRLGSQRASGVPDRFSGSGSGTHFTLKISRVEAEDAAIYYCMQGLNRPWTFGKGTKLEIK
Sequence of 4970_K22 (PGT-144) (antibody) (VH): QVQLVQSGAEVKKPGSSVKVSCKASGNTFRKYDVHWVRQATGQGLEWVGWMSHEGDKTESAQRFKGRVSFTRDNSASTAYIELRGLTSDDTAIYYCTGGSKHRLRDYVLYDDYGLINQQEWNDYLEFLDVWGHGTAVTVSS
Sequence of 4970_K22 (PGT-144) (antibody) (VL): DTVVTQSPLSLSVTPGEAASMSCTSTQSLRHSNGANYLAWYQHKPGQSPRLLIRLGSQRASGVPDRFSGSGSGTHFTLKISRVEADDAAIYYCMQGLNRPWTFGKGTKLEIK
Sequence of 5345_I01 (PGT-137) (antibody) (VH): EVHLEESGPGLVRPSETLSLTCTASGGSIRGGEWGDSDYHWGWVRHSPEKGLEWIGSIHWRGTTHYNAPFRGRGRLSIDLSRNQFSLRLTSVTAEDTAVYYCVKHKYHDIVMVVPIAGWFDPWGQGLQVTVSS
Sequence of 5345_I01 (PGT-137) (antibody) (VL): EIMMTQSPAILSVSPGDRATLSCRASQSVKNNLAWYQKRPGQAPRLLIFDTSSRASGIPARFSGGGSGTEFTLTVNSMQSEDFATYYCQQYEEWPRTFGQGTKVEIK

Row | Substance | IC50 (µg/mL), pseudovirus neutralization [8] | IC50 (neutralizing activity, pseudovirus) [15] | IC50 (neutralizing activity, pseudovirus) [16] | IC50 (µg/mL), pseudovirus neutralization [17] | IC50 (µg/mL), pseudovirus neutralization [18] | IC50 (µg/mL), pseudovirus neutralization [19] | IC50 (µg/mL), pseudovirus neutralization [20] | IC50 (µg/mL), pseudovirus neutralization [21] | IC50 [22] | IC50 (µg/mL), pseudovirus neutralization [23] | IC50 neutralization [24] | IC50 neutralization [25] | IC50 neutralization [26] | IC50 (µg/mL), pseudovirus neutralization [27] | IC50 neutralization [28] | IC50 (µg/mL), pseudovirus neutralization [29] | IC50 [30] | neutralization IC50 [31] | IC50 (µg/mL), pseudovirus neutralization [32] | IC50 [33] | other results
1 | 1496_C09 (PG9) (TCN-109) (antibody) | 1.98 µg/mL | – | – | – | – | – | – | – | – | – | – | – | – | – | – | – | – | – | – | – | IC50 (µg/ml), pseudovirus neutralization [1]: 9.31 µg/mL; IC50 (µg/ml), pseudovirus neutralization [2]: 0.4 µg/mL; IC50 (µg/ml), pseudovirus neutralization [3]: 1.91 µg/mL; IC50 (µg/ml), pseudovirus neutralization [4]: 4.55 µg/mL; IC50 (µg/ml), pseudovirus neutralization [5]: 41.8 µg/mL; IC50 (µg/ml), pseudovirus neutralization [6]: 0.01 µg/mL; IC50 (µg/ml), pseudovirus neutralization [7]: 4.01 µg/mL; IC50 [9]: 0.04 µg/mL; IC50 (µg/ml), pseudovirus neutralization [10]: 0.06 µg/mL; IC50 (µg/ml), pseudovirus neutralization [11]: 0.43 µg/mL; IC50, pseudovirus neutralization [12]: 0.0535 µg/mL; IC50 (µg/ml), pseudovirus neutralization [13]: 0.03 µg/mL; IC50 [14]: 0.23 µg/mL
2 | 4970_K22 (PGT-144) (antibody) | 3.84 µg/mL | > 10 µg/mL | > 10 µg/mL | > 50 µg/mL | > 50 µg/mL | – | – | – | – | – | – | – | – | – | – | – | – | – | – | – | –
3 | 5345_I01 (PGT-137) (antibody) | – | – | – | > 50 µg/mL | > 50 µg/mL | > 50 µg/mL | > 50 µg/mL | > 50 µg/mL | > 50 µg/mL | > 50 µg/mL | > 50 µg/mL | > 50 µg/mL | 32.9 µg/mL | > 50 µg/mL | > 50 µg/mL | 1.98 µg/mL | > 50 µg/mL | > 50 µg/mL | > 50 µg/mL | > 50 µg/mL | IC50 neutralization [34]: > 50 µg/mL; IC50 (µg/mL), pseudovirus neutralization [35]: 0.106 µg/mL
4 | VRC01 (antibody) | 0.055 µg/mL | – | – | 0.029 µg/mL | 0.515 µg/mL | – | – | – | – | – | – | – | – | – | – | – | – | – | – | – | –
5 | 5114_A19 (PGT-128) (antibody) | – | – | – | 0.032 µg/mL | > 50 µg/mL | 0.019 µg/mL | > 50 µg/mL | 0.004 µg/mL | 0.014 µg/mL | 0.025 µg/mL | 0.003 µg/mL | 0.007 µg/mL | 0.007 µg/mL | > 50 µg/mL | 0.143 µg/mL | 0.196 µg/mL | > 50 µg/mL | 0.008 µg/mL | 24.9 µg/mL | 0.011 µg/mL | IC50 neutralization [34]: 0.03 µg/mL; IC50 (µg/mL), pseudovirus neutralization [35]: > 50 µg/mL
6 | 5141_B17 (PGT-126) (antibody) | – | – | – | – | – | – | – | – | – | – | – | – | – | – | – | – | – | – | – | – | neutralization IC50 (pseudovirus) [15]: 0.014 µg/mL; neutralization IC50 (pseudovirus) [16]: 0.0639 µg/mL; IC50, pseudovirus neutralization [36]: 0.376 µg/mL; IC50, pseudovirus neutralization [37]: 0.009 µg/mL; neutralization IC50 [38]: 0.042 µg/mL; IC50, pseudovirus neutralization [39]: > 50 µg/mL; IC50, pseudovirus neutralization [40]: > 50 µg/mL
7 | 5329_C19 (PGT-136) (antibody) | – | > 10 µg/mL | > 10 µg/mL | > 50 µg/mL | > 50 µg/mL | > 50 µg/mL | > 50 µg/mL | > 50 µg/mL | > 50 µg/mL | > 50 µg/mL | > 50 µg/mL | > 50 µg/mL | > 50 µg/mL | > 50 µg/mL | > 50 µg/mL | 11.1 µg/mL | > 50 µg/mL | > 50 µg/mL | > 50 µg/mL | > 50 µg/mL | IC50 neutralization [34]: > 50 µg/mL; IC50 (µg/mL), pseudovirus neutralization [35]: 0.052 µg/mL
8 | 4995_E20 (PGT-142) (antibody) | 0.019 µg/mL | > 10 µg/mL | > 10 µg/mL | > 50 µg/mL | > 50 µg/mL | – | – | – | – | – | – | – | – | – | – | – | – | – | – | – | –
9 | PGV04 (antibody) | 0.083 µg/mL | – | – | – | – | – | – | – | – | – | – | – | – | – | – | – | – | – | – | – | –
